From patent US20260232827A1, “ANTIBODY-DRUG CONJUGATES TARGETING NAPI2B AND METHODS OF USE” (Zymeworks BC Inc., priority 2023, published 2026)

Molecular target: T1, human NaPi2b (Homo sapiens, UniProt O95436)
T1 construct: Full length human NaPi2b; host or cells: HEK293-6e
T1 sequence (O95436 1-690): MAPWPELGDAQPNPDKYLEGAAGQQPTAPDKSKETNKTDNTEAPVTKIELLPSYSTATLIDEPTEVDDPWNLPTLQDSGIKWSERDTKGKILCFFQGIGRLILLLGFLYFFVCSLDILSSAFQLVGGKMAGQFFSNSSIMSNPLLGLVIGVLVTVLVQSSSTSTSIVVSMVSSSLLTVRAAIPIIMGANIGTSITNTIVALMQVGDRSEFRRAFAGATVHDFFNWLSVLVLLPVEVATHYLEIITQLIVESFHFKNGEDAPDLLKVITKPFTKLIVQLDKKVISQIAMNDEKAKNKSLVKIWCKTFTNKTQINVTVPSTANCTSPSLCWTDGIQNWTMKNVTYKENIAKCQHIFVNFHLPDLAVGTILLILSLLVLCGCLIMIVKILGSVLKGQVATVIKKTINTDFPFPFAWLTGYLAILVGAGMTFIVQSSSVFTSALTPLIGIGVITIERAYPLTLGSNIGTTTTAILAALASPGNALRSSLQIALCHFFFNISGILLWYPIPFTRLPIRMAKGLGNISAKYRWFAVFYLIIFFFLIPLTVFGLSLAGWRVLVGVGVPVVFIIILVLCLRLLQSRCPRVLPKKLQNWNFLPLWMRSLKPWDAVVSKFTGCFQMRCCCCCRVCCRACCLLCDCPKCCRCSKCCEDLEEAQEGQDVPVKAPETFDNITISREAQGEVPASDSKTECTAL
Experiment: Flow cytometry binding to transfected HEK293-6e cells
Details: huNaPi2b (full length human NaPi2b), 24 hours at 4° C.
Method: The binding cross-reactivity of humanized antibody variant v29456 to human, cynomolgus and mouse NaPi2b was assessed by flow cytometry using HEK293-6e transfected cells.
Following staining and washing, fluorescence was detected by flow cytometry on BD LSRFortessa™ Cell Analyzer (BD Biosciences, Franklin Lake, NJ) with 10,000 minimum events collected per well. The AF647/APC-A GeoMean (fluorescence signal geometric mean, proportional to anti-Human AF647 binding) was calculated for the live singlet cell population for each primary antibody using FlowJo™ v8 software (BD Biosciences, Franklin Lake, NJ). The Bmax and Kd of each primary antibody were calculated using GraphPad Prism Version 9 (GraphPad Software, San Diego, CA)
(§1) Following incubation and washing, fluorescence was detected by flow cytometry on a BD LSRFortessa™ Cell Analyzer (BD Biosciences, Franklin Lake, NJ) with 1,000 minimum events collected per well.
as §1, §1

Substance: palivizumab [palivizumab (v21995)]
- Background-Subtracted AF647 Mean Fluorescence Intensity (antibody 2.0 nM): -22
- Background-Subtracted AF647 Mean Fluorescence Intensity (antibody 20.0 nM): 13
- Background-Subtracted AF647 Mean Fluorescence Intensity (antibody 200.0 nM): 19
